Assay results taken from patent US20050048606A1 (AGENCY FOR SCIENCE TECHNOLOGY AND RESEARCH, published 2005).

Biological target: TrkA (rat (endogenous in PC12 rat …, UniProt P35739 33-799))
Experiment: cell-based or functional assay

Sequence of TrkA (rat (P35739 33-799): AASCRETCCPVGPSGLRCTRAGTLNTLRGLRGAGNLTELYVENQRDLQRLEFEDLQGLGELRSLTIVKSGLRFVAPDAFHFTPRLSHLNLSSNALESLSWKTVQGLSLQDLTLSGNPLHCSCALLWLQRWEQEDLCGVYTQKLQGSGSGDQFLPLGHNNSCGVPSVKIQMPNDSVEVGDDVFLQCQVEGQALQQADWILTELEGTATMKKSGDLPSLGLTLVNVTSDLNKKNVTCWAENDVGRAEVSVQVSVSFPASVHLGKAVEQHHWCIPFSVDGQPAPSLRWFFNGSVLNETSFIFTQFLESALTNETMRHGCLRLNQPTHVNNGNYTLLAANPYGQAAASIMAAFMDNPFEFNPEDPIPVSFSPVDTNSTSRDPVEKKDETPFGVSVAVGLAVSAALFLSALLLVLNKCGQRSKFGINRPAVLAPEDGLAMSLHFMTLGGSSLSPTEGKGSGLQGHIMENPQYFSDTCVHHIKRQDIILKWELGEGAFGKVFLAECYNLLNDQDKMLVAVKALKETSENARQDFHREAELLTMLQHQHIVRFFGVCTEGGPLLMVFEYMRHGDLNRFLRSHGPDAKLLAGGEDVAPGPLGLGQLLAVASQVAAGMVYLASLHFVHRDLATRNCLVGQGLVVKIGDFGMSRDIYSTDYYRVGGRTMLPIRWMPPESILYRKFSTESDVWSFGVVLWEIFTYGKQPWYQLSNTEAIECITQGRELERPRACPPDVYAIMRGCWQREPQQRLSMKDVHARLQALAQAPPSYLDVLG

B1: SPKR4NL1-2 (other)
chain: MGHHHHHHHHHHSSGHIEGRHMSPKRSPKRSPKRSPKRGGTYLSEDELKAAEAAFKRHNPTGSCSVSVWVGDKTTATDIKGKEVMVLGEVNINNSVFKQYFFETKCRDPNPVDSG
modifications: disulfide bridge intended between the added Cys and the Cys corresponding to C58 of NGF
With B1 the “increase in gene expression in PC12 cells, SPKR4NL1-2 group against (SPKR)4 group (luciferase)” value was 1400 fold.
